Here are results for four molecules from PMC12302720 (The Journal of Biological Chemistry, 2025).

In assay [1] the target is T1, extracellular domain of cynomolgus CD47 (CyCD47 ECD) (cynomolgus).
T1 chain: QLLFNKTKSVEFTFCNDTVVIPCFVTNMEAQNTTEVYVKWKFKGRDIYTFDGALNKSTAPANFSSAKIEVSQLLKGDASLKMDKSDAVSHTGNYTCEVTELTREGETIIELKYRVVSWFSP
The experiment in a line: ELISA.

Assay [2] concerns the target T2, extracellular domain of human CD47 (HuCD47 ECD) (human, UniProt Q08722).
T2 construct: human CD47 extracellular domain, amino acids Gln1-Pro121; source: bought: Acro Biosystems; not shown: His6, C-terminal, kept
Nature of the assay: ELISA; plates coated with 1 ug/ml HuCD47 ECD or CyCD47 ECD in 0.1 M PBS; serially diluted antibodies, 37 °C, 2 h; bound antibody detected with anti-human Fc HRP. The conditions noted are these: both partners purified.

The target in assay [3] is T2, extracellular domain of human CD47 …. Nature of the assay: BLI; Octet Red96; 5 ug/ml antibody held on anti-human IgG-Fc biosensors; 2-fold dilutions of HuCD47 ECD or CyCD47 ECD in 1 x PBS, 0.1% BSA, 0.02% Tween-20; 1:1 Langmuir global fit; apparent Kd. The conditions noted are these: both partners purified.
Assay [4] concerns the target T3, extracellular domain of cynomolgus CD47 (CyCD47 ECD) (Macaca fascicularis, UniProt A0A2K5X4I2).
T3 construct: cynomolgus CD47 extracellular domain; source: bought: Acro Biosystems
The description is as above. The note with it: both partners purified.

Positions count from the first letter of the chain named.

T3 sequence (A0A2K5X4I2 entry or part of it): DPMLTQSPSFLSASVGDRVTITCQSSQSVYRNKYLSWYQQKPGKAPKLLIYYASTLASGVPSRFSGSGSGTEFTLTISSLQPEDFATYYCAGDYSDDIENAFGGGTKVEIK

B1: Hu5F9-G4, humanized mouse anti-human CD47 antibody (antibody, V domains shown)
VH: QVQLVQSGAEVKKPGASVKVSCKASGYTFTNYNMHWVRQAPGQRLEWMGTIYPGNDDTSYNQKFKDRVTITADTSASTAYMELSSLRSEDTAVYYCARGGYRAMDYWGQGTLVTVSS
VL: DIVMTQSPLSLPVTPGEPASISCRSSQSIVYSNGNTYLGWYLQKPGQSPQLLIYKVSNRFSGVPDRFSGSGSGTDFTLKISRVEAEDVGVYYCFQGSHVPYTFGQGTKLEIK
Molecule B1 showed an EC50 in assay [1] of 0.04 µg/mL.

B2: H3L2, humanized variant of 1C8 (antibody, V domains shown)
VH: QSVKESGGGLFQPGGSLRLSCSVSGFSLSSYAISWVRQAPGKGLEYIGYISSIGDPYYADWVKGRFTISRDSSTVYLQMTSLRAEDTAVYFCARSYPGNGDLGRLDIWGQGTTVTVSS
VL: DPQLTQSPSFVSASVGDRVTITCRSSQSVYRNKYLSWYQQKPGKAPKLLIYYASTLASGVPSRFSGSGSGTEFTLTISSVQPEDAATYYCAGDYSDDIENAFGQGTKVEIK
In the case of B2, the binding result in assay [2] was “binds”.

B3: H4L3, humanized variant of 1C8 (antibody, V domains shown)
VH: QSVKESGGGLFQPGGSLRLSCSVSGFSLSSYAISWVRQAPGKGLEYIGYISSIGDPYYADWVKGRFTISRDNSKNTVYLQMTSLRAEDTAVYFCARSYPGNGDLGRLDIWGQGTTVTVSS
VL: B2 VL with Q3M, V11L, R24Q, V80L, A85F, Q104G
With B3, the “fold lower binding affinity than 1C8” value in assay [3] turned out to be 3 fold. Besides, the binding result in assay [4] is given as “binds”.

B4: H4L2, humanized variant of 1C8 (antibody, V domains shown)
VH: B3 VH
VL: B2 VL
Take B4: the binding result in assay [2] was “binds”.
